Experimental data from article PMC10104074.

Molecular target: globupain zymogen (wild-type, signal-free, C-terminal 6xHis) (unclassified Archaeoglobus species (metagenome, Soria Moria hydrothermal vent field))
Experiment: SEC + AUC

stoichiometry N: 2
Substance: globupain zymogen (wild-type, signal-free, C-terminal 6xHis) (enzyme)
